Data reported in patent US20170240642A1 (ALLIGATOR BIOSCIENCE, published 2017).

Target: T1, CD40hfc (R&Dsystems, USA) (human, UniProt P25942 21-193)
T1 construct: Bought reagent, amine-coupled to the Biacore chip; also called immobilized CD40 receptor; not shown: Fc part of the bought CD40hfc
Assay: SPR, Biacore 3000; CD40hfc amine-coupled to chip, antibody as analyte; 37 C, pH 7.3
Description: The affinity measures of purified antibodies by surface plasmon resonance using the Biacore 3000 instrument was performed according to manufacturer's protocols.
The CD40hfc (R&Dsystems, USA) was immobilized to the BIAcore sensorchip, CMS, using conventional amine coupling. The anti-CD40 antibodies of the invention, (serially diluted 1/3 from 1-0.012 nM) were analysed for binding in HBS-P (GE, BR-1003-68) at a flow rate of 30 μl/min at 37° C. and pH 7.3. The association was followed for 3 minutes and the dissociation for 10 minutes. Regeneration was performed twice using 50 mM NaOH for 30 seconds. The kinetic parameters and the affinity constants were calculated using BIAevaluation 4.1 software.

T1 sequence (P25942 21-193): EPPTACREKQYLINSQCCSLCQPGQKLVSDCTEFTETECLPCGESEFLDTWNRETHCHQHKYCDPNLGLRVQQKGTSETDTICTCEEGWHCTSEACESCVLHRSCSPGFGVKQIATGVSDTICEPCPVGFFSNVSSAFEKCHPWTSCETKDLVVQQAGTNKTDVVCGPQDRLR

Row | koff | Binder
1 | 0.00032 s⁻¹ | Antibody clone F6 (antibody, human IgG1, lambda, V domains shown, Tested as purified antibody) VH: EVQLLESGGGLVQPGGSLRLSCAASGFTFSTYGMHWVRQAPGKGLEWLSYISGGSSYIFYADSVRGRFTISRDNSENALYLQMNSLRAEDTAVYYCARILRGGSGMDLWGQGTLVTVSS VL: QSVLTQPPSASGTPGQRVTISCTGSSSNIGAGYDVYWYQQLPGTAPKLLIYRNINRPSGVPDRFSGSKSGTSASLAISGLRSEDEADYYCAAWDGSLLGLVFGGGTKLTVLG
2 | 0.00012 s⁻¹ | Antibody clone F9 (antibody, human IgG1, lambda, V domains shown, Tested as purified antibody) VH: EVQLLESGGGLVQPGGSLRLSCAASGFTFSTYGMHWVRQAPGKGLEWLSYISGGSSYIFYADSVRGRFTISRDNSENALYLQMNSLRAEDTAVYYCARILRGGSGMDLWGQGTLVTVSS VL: QSVLTQPPSASGTPGQRVTISCTGSSSNIGAGYGVYWYQQLPGTAPKLLIYGNINRPSGVPDRFSGSKSGTSASLAISGLRSEDEADYYCAAWDGTLTGLLFGGGTKLTVLG
